From the supplement of paper PMC9170038

System: MS2 coat protein
Experiment: apparent KD of MS2 coat protein; designed switch direction (-1 OFF switch, 1 ON switch): -1; higher = weaker reporter binding
Outline: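 On Illumina chips, designed RNA switches with common flanks were made by stalled E. coli RNA polymerase. Titrations with SNAP-549-labelled MS2 coat protein, doubling from 0.7 or 1.5 nM to 3 µM, were done with no input, with 200 uM small-molecule ligand, or with an oligonucleotide input. Apparent KD is the median per design over clusters, from curve fits of normalised cluster fluorescence.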

[1] = Eterna round: R95, input ligand: FMN 200 uM
[2] = Eterna round: R95, input ligand: microRNA oligo, concentration not stated
[3] = Eterna round: R95, input ligand: none

Sequence	apparent KD of MS2 coat protein [1] [nM]	apparent KD of MS2 coat protein [2] [nM]	apparent KD of MS2 coat protein [3] [nM]	apparent KD of MS2 coat protein (input ligand: FMN 200 uM) [nM]	apparent KD of MS2 coat protein (input ligand: none) [nM]	apparent KD of MS2 coat protein (input ligand: microRNA oligo, concentration not stated) [nM]
GAAGAAGAGAGAAUAGAAAACAUGAGGAUCACCCAUGUUAAGAGAUGAGGGUGUAAUAGGAUUUUUGCUCGUCUUAU (puzzle: Sensor v3, turn-off variant 1)	38.3	54	40.5			
GAAGAGACAGGAUAUACAUGAGGAUCACCCAUGUGAGGAGGUUGGAAGCGGAGAAGGUGUAGAAGGGUCAAAGA [JR_Exclu3_Sub023] (puzzle: Exclusion 3)	75.1	37.1	80.7			
GAAGAGACAGGAUAUACAUGAGGAUCACCCAUGUGAGUAUGUUGGAGGCGGAGGAGGUGUAGAAGGGUCAAAGA [JR_Exclu3_Sub019] (puzzle: Exclusion 3)		20.2				
GACCCAGAUGUAAGGAUAUCGAGCUGCGUCAGGUUCGAGAAGGUACAUGAGGAUCACCCAUGUGCAAGCACUCC [BmEX4 B.18] (Eterna round: R97, puzzle: Brourd's mod of Exclusion 4)				32.8	17.4	
GACCCUAGGGUCAGACCCACAAGCUUUUUGCUCGUUUUAACAUGAGGAUCACCCAUGUCUAGUGGAUCUGAUCGGGC [Geores] (puzzle: Sensor v3, turn-off variant 2)	18.4	76.4	17.2			
GACCGGACGUGGUCUGGUAACAUGAGGAUCACCCAUGUUGGUCUAAGAACAUGCCUUUUGCACGCUCGUCUUAUAUU [JR_SV3TOV1_Sub062] (puzzle: Sensor v3, turn-off variant 1)	66.2	29.6	80.5			
GACUAGUGAGGAUAUAUUUGCAGUGUACCUCGGGUGAUCGCACUUGAGGAUCACCCAAGUAGAAGGCGCGAGGG [EX2 #25] (Eterna round: R97, puzzle: Exclusion 2)				47.7	355	
GACUGACAUGAGGAUCACCCAUGUAAGGAUAUAGGGAGCGUCGCUCCGCAACCCGCGCCUAGAAGGUACAAGGU [EX1 C.20] (Eterna round: R97, puzzle: Exclusion 1)				18.2	21.2	
GACUGCCGAGGAUAUACAUGAGGAUCACCCAUGUGCUUCAGCAUUUUUUAAUGCAUGGGUAGAAGGCGGUAGUU [LRO-Excl3-14] (puzzle: Exclusion 3)		31.5				
GAGAAAGCAAGCAAGUGAAACAUGAGGAUCACCCAUGUCCUCAUUUGCUCGUCUUAUAAGCUAUGCGAAAGCAUAGC [Mat - Sensor v3 - turn-off var 1 - Eli Mod - D50] (puzzle: Sensor v3, turn-off variant 1)	12.3	101	11.3			
GAGAAAUUAUAGGAUAUCGAAAGGAUAAUUUAACGAGAAGGAUGAACAUGAGGAUCACCCAUGUGGUAUCAUGG [JL-ex6-3.11] (puzzle: Exclusion 6)	346	302	157			
GAGAAGGUAGGAUAUACGAAUAAAAAGGGUAGAAGAAGAACACAUGAGGAUCACCCAUGUAGAAGGACCAAGAG [Mat - Exclusion 2 - Mod of my Tesla design - D22] (puzzle: Exclusion 2)	44	17.2	17.6			
GAGACAGAAGGAUAUACGUCCGCGAGUGCGAUGCGCUUGGGACAUGAGGAUCACCCAUGUAGAAGGUCUAACCC [Eternabot (L1) Solution 89] (Eterna round: R97, puzzle: Exclusion 2)				318	251	
GAGCUAUGAGGAUAUGCAUAUAUACGGUUUCGUGUGGUACUACAUGAGGAUCACCCAUGUAGAAGGCGUGGCUG [JL-ex2-2.05 mat747 mod] (puzzle: Exclusion 2)		14.2				
GAGCUGUGAGGAUAUACAUGAGGAUCACCCAUGUUAAGGAAGUCGGGAUUAAUUUGGUGUAGAAGGCGCUUAUU [JR_Ex3_Sub020] (Eterna round: R97, puzzle: Exclusion 3)				44	42.5	
GAGGAGGUAGGAUAUACGAUAAUAUAGGGUAGAUAUAUAACACAUGAGGAUCACCCAUGUAGAAGGACCAGGAG [Mat - Exclusion 2 - Mod of my Tesla design - D64] (puzzle: Exclusion 2)		36.7				
GAGGCAUGCUGAGGUCCACACAUGAGGAUCACCCAUGUAAUGACAAGCUUUUUCCUCGUCUUAUCGCUAUCGCGUUC [Dilaenla] (Eterna round: R96, puzzle: Sensor v3, turn-off variant 1)				13.1	16.3	22.2
GAGGCAUGCUGAGGUCCACACAUGAGGAUCACCCAUGUAAUGACAAGCUUUUUCCUCGUCUUAUCGCUAUCGCGUUC [Dilaenla] (puzzle: Sensor v3, turn-off variant 1)	15.5	28.4	15			

Sequence	apparent KD of MS2 coat protein [1] [nM]	apparent KD of MS2 coat protein [2] [nM]	apparent KD of MS2 coat protein [3] [nM]	apparent KD of MS2 coat protein (input ligand: FMN 200 uM) [nM]	apparent KD of MS2 coat protein (input ligand: none) [nM]	apparent KD of MS2 coat protein (input ligand: microRNA oligo, concentration not stated) [nM]
GAGGUACAUGAGGAUCACCCAUGUGAGGAUAUAGUGGAAGAUUGAGAGAGGUGGAGGACUAGAAGGCACAGUGG [JR_Exclu1_Sub039] (puzzle: Exclusion 1)		48.1				
GAGUGACAUGAGGAUCACCCAUGUGAGGAUAUCGGACGGACCAAAUUAACAAUAAUUGCGAGAAGGCGCAUCGG [Exclusion 1 V15] (puzzle: Exclusion 1)	76	51.6	54.4			
GAGUGACAUGAGGAUCACCCAUGUGAGGAUAUCGGACGGACCAAAUUAACAAUUUUUGCGAGAAGGCACAUCGG [Exclusion 1 V18] (puzzle: Exclusion 1)		51.9				
GAGUGGCAAGGAUAUACAGUGGAGAGGAUGGCAAGAGGUGGACAUGAGGAUCACCCAUGUAGAAGGUGCAGAGA [JR_Exclu2_Sub024] (puzzle: Exclusion 2)		150				
GAUAAGGUAGGAUAUACGAAGAAAGAGGGUAGUAAUAAUACACAUGAGGAUCACCCAUGUAGAAGGACCAAGAG [Mat - Exclusion 2 - Mod of my Tesla design - D44] (puzzle: Exclusion 2)	38.7	23	22.1			
GAUAAGGUAGGAUAUACGAAGAAAGAGGGUAGUAAUAAUACACAUGAGGAUCACCCAUGUAGAAGGACCAAUAG [Mat - Exclusion 2 - Mod of my Tesla design - D43] (puzzle: Exclusion 2)	39.1	26	26.4			
GAUACACAUGAGGAUCACCCAUGUGAGGAUAUGCGUACGUUGUCCGUAGGCGACGUGCGCAGAAGGCGCAAAGG [Mat - Mod of JL D97] (puzzle: Exclusion 1)	85.1	41.3	86			
GAUCAACAUGAGGAUCACCCAUGUGAGGAUAUGAUACUAUGUACUUCGGUACAUAGUAUCAGAAGGCAUAUGAA [Ex1-3: 36] (puzzle: Exclusion 1)		52				
GAUCAACAUGAGGAUCACCCAUGUGAGGAUAUGAUACUAUGUACUUCGGUACAUAGUAUCAGAAGGCAUGUGGA [Ex1-3: 76] (puzzle: Exclusion 1)		162				
GAUCACUGAGGAUAUACACAGAUACAAAGUAUCUGAUAGUGACAUGAGGAUCACCCAUGUAGAAGGCAGAGGUC [Omei Ex2 B8] (Eterna round: R97, puzzle: Exclusion 2)				433	72.2	
GAUCAUGCAGGAUAUACAUGGACCAUGAAAACAUGGAUUUCACAUGAGGAUCACCCAUGUAGAAGGGCAUGAUC [Omei Ex2 A9] (Eterna round: R97, puzzle: Exclusion 2)				82.1	777	
GAUCAUGCAGGAUAUACAUGGACCAUGAAAACAUGGUUUUCACAUGAGGAUCACCCAUGUAGAAGGGCAUGAUC [Omei Ex2 A8] (Eterna round: R97, puzzle: Exclusion 2)				275	1400	
GAUCCACAUGAGGAUCACCCAUGUCAGGAUAUGAUACUAUGUACUUCGGUACAUAGUAUCAGAAGGGACAGAUC [Ex1-3: 2] (puzzle: Exclusion 1)		162				
GAUCCACAUGAGGAUCACCCAUGUUAGGAUAUGACAACGACUCGCACUACGUUGUUGCUCAGAAGGAGCACCCA [Eternabot (Original) Solution 10] (Eterna round: R97, puzzle: Exclusion 1)				19.1	18.3	
GAUCCUUAAGUCAGGAUAUCAAGCAAACUCAAAAUUGAGAAGGGACAUGAGGAUCACCCAUGUCACCGAAAUAA [Reteisus] (puzzle: Brourd's mod of Exclusion 4)	10.1	8.98	10.6			
GAUCUGACAGGAUAUACAUGAGGAUCACCCAUGUGCGAGCUAGCGAAAGCUAGCUUAGGUAGAAGGGUCAGAUC [Ex3 dot plot directed v3] (puzzle: Exclusion 3)		10.7				
GAUGGAGAGCAGGAUAUCUUGGGUAAGCAUCAUAGAGAAGGGCUCACAUGAGGAUCACCCAUGUGGUCCUAGAA [Ateedza] (puzzle: Exclusion 6)	30.7	16.2	14.9			
GAUUAAUUAAUUAAUUAAUACAUGAGGAUCACCCAUGUAAUUUAAGAUCCUUAUACAAGCUUUGAUCUCGUAAUUAA [Stov1/4-A3] (Eterna round: R97, puzzle: Sensor, turn-off variant 1)				120	120	
